Measured values as given in paper doi:10.1101/2020.09.29.317933 (bioRxiv, 2020).
Changes are numbered by the printed parent chain. Names may count otherwise.

B1: His-tagged lamin A/C 1-300 fragment, wild type (domain or fragment, human, UniProt P02545 1-300, looked up)
chain: METPSQRRATRSGAQASSTPLSPTRITRLQEKEDLQELNDRLAVYIDRVRSLETENAGLRLRITESEEVVSREVSGIKAAYEAELGDARKTLDSVAKERARLQLELSKVREEFKELKARNTKKEGDLIAAQARLKDLEALLNSKEAALSTALSEKRTLEGELHDLRGQVAKLEAALGEAKKQLQDEMLRRVDAENRLQTMKEELDFQKNIYSEELRETKRRHETRLVEIDNGKQREFESRLADALQELRAQHEDQVEQYKKELEKTYSAKLDNARQSAERNSNLVGAAHEELQQSRIRID
B2: His-tagged lamin A/C 1-300 fragment, L59R (domain or fragment, human, UniProt P02545 1-300, looked up)
chain: B1 chain with L59R
B3: His-tagged lamin A/C 1-300 fragment, I63S (domain or fragment, human, UniProt P02545 1-300, looked up)
chain: B1 chain with I63S
B4: His-tagged lamin A/C 1-300 fragment, Y45C (domain or fragment, human, UniProt P02545 1-300, looked up)
chain: B1 chain with Y45C
B5: His-tagged lamin A/C 1-300 fragment, L35V (domain or fragment, human, UniProt P02545 1-300, looked up)
chain: B1 chain with L35V
B6: lamin A/C 1-125 fragment, wild type, prey of Fig. 6B (domain or fragment, human, UniProt P02545 1-125, looked up)
chain: METPSQRRATRSGAQASSTPLSPTRITRLQEKEDLQELNDRLAVYIDRVRSLETENAGLRLRITESEEVVSREVSGIKAAYEAELGDARKTLDSVAKERARLQLELSKVREEFKELKARNTKKEG
B7: lamin A/C 250-400 fragment (C-terminal part of coil 2), wild type, tag-free (domain or fragment, human, UniProt P02545 250-400, looked up)
chain: AQHEDQVEQYKKELEKTYSAKLDNARQSAERNSNLVGAAHEELQQSRIRIDSLSAQLSQLQKQLAAKEAKLRDLEDSLARERDTSRRLLAEKEREMAEMRARMQQQLDEYQELLDIKLALDMEIHAYRKLLEGEEERLRLSPSPTSQRSRG
B8: His-tagged lamin A/C 1-125 fragment, L35V (domain or fragment, human, UniProt P02545 1-125, looked up)
chain: B6 chain with L35V
B9: His-tagged lamin A/C 1-125 fragment, I63S (domain or fragment, human, UniProt P02545 1-125, looked up)
chain: B6 chain with I63S
B10: His-tagged lamin A/C 1-125 fragment, wild type (domain or fragment, human, UniProt P02545 1-125, looked up)
chain: B6 chain
B11: His-tagged lamin A/C 1-125 fragment, L59R (domain or fragment, human, UniProt P02545 1-125, looked up)
chain: B6 chain with L59R
B12: His-tagged lamin A/C 1-125 fragment, Y45C (domain or fragment, human, UniProt P02545 1-125, looked up)
chain: B6 chain with Y45C

Tests used:
[1] = target: the molecule itself
[2] = target: T1, His-tagged lamin A/C 250-400 fragment, L362C (human, UniProt P02545 250-400, L362C); experiment: pull-down
T1 sequence (looked up): B7 chain with L113C

[3] = target: T2, His-tagged lamin A/C 250-400 fragment, wild type (human, UniProt P02545 250-400); experiment: pull-down
T2 sequence (looked up): B7 chain

[4] = target: T3, His-tagged lamin A/C 1-300 fragment, Y45C (human), P02545; experiment: ITC; conditions: remark: other sources report otherwise
T3 chain: B1 chain with Y45C

[5] = target: B5; experiment: ITC
[6] = target: B2; experiment: ITC
[7] = target: B3; experiment: ITC
[8] = target: B1; experiment: pull-down
[9] = target: B7; experiment: pull-down
[10] = target: T4, lamin A/C 250-400 fragment, Y267C, tag-free (human, UniProt P02545 250-400, Y267C); experiment: pull-down
T4 sequence (looked up): B7 chain with Y18C

[11] = target: T5, lamin A/C 250-400 fragment, K316C, tag-free (human, UniProt P02545 250-400, K316C); experiment: pull-down
T5 sequence (looked up): B7 chain with K67C

| Binder | stoichiometry N [1] | binding result [9] | also measured |
| --- | --- | --- | --- |
| B1 | 2 | – | – |
| B2 | 2 | – | – |
| B3 | 2 | – | – |
| B4 | 2 | – | – |
| B5 | 2 | – | – |
| B6 | – | – | binding result [2]: binds; binding result [3]: binds |
| B7 | – | – | fold decrease of the eA22 interaction against wild type (from KD) [4]: 5 fold; fold decrease of the eA22 interaction against wild type (from KD) [5]: ~2 fold; fold increase of the eA22 interaction against wild type (from KD) [6]: ~56 fold; fold increase of the eA22 interaction against wild type (from KD) [7]: ~2 fold; binding result [8]: binds |
| B8 | – | binds | – |
| B9 | – | binds | – |
| B10 | – | binds | binding result [10]: binds; binding result [11]: binds |
| B11 | – | binds | – |
| B12 | – | binds | – |
